Assay results taken from paper PMC7864060, “The cation diffusion facilitator protein MamM's cytoplasmic domain exhibits metal-type dependent binding modes and discriminates against Mn^2+” (The Journal of Biological Chemistry, 2020).

B1: MamM CTD (cytoplasmic C-terminal domain of MamM, residues 215-318) (domain or fragment, UniProt V6F235 215-318, looked up)
chain: EAVQNRIVEAAERVPGVRGVIHLRARYVGQDIWADMIIGVDPENTVEQAHEICEAVQAAVCGKIRRIESLHVSAEAREIGDTTKPSFSDQPLSFDEVMLSKVDN
notes: MamM, cation diffusion facilitator iron transporter of magnetotactic bacteria, UniProt Q6NE57, C-terminal domain, residues 215-318; Homodimer in all crystal forms; also called WT MamM CTD; MamM's cytoplasmic domain
B2: spin-labeled C267S MamM CTD (domain or fragment, UniProt V6F235 215-318, looked up)
chain: EAVQNRIVEAAERVPGVRGVIHLRARYVGQDIWADMIIGVDPENTVEQAHEISEAVQAAVCGKIRRIESLHVSAEAREIGDTTKPSFSDQPLSFDEVMLSKVDN
modifications: MTSL spin label on Cys-275
notes: MamM, cation diffusion facilitator iron transporter of magnetotactic bacteria, UniProt Q6NE57, C-terminal domain, residues 215-318, with C267S; Only Cys-275 is left for labelling with MTSL; also called C267SSL; MamM CTD C267S

Key:
[1] = biological target: the molecule itself; assay: crystal structure; MamM CTD 20 mg/ml co-crystallised with 3.375 mM CuSO4; 10 mM Tris pH 8.0, 150 mM NaCl, 5 mM β-mercaptoethanol; vapor diffusion, 293 K
[2] = biological target: the molecule itself; assay: PELDOR (pulsed EPR) spectroscopy; four-pulse PELDOR at 50 K on MTSL-labelled C267S MamM CTD (250 or 500 µM in D2O, 30% glycerol-d8) incubated with 3- or 5-fold excess of Cd2+, Ni2+, Cu2+, Fe2+ or Mn2+; distance between the Cys-275 labels of the two protomers

Protein | binding result [1] | binding result [2]
B1 | binds | –
B2 | – | binds
